As a reminder, the Tm is the temperature at which the thermal transition is half complete. One may read the Kd as the free concentration of one partner at which half of the binding sites on the other are occupied at equilibrium, for simple one-to-one binding.

In data set [1] the test system is LDH-H variants. Put plainly: nanoDSF thermal denaturation of LDH-H variants. It counts as physicochemical, human. The conditions noted are these: for nanoDSF denaturation pattern / Ratio 350/330 nm / Tm: n = 6; for nanoDSF denaturation pattern: in words; for Ratio 350/330 nm: nanoDSF fluorescence emission ratio; for Ratio 350/330 nm / Tm: pH 7.6; for Tm: Tycho NT.6, protein 25 to 65 μM, 50 mM sodium phosphate, 100 mM NaCl, 20% glycerol, mean ± SEM. The procedure:
Solutions of proteins (LDH-H, LDH-Htr or variants), stored in a 50 mM sodium phosphate, 100 mM NaCl, and 20% glycerol, pH 7.6, were evaluated on a Tycho NT.6 device (NanoTemper Technologies) using concentrations ranging from 25 to 65 μM.

The next data set has as its system LDH-H oligomeric state. Kind of data set: Mass photometry of LDH-H, LDH-Htr and variants. Conditions: for Oligomeric state in solution: in words; for Molecular weight (main oligomeric state): mean ± SD, one measurement, repeated at least 3 times with similar results, 1 μl of 1 μM stock into 16 μl PBS; for Relative intensity of dimer peak / Relative intensity of tetramer peak / Molecular weight of dimer peak / Molecular weight of tetramer peak: peak label in figure; for Molecular weight of dimer peak: theoretical dimer 78 kDa (LDH-H), 73.2 kDa (LDH-Htr); for Molecular weight of tetramer peak: theoretical tetramer 155 kDa (LDH-H). It counts as physicochemical, human. Here is the method: Protein landing was recorded using a Refeyn OneMP (Refeyn Ltd) MP system by adding 1 μl of the protein stock solution (1 μM) directly into a 16 μl drop of filtered PBS solution. Movies were acquired for 60 s (6.000 frames) with the AcquireMP (version 2.1.1; Refeyn Ltd) software using standard settings. Data were analyzed using default settings on DiscoverMP (version 2.1.1; Refeyn Ltd) ([44]). Contrast-to-mass calibration was performed prior to the experiments using a mix of proteins with molecular weights of 66, 146, 480, and 1048 kDa.

Data set [2] addresses dimeric LDH-Htr. Put plainly: MST, peptide binding to LDH-Htr. More on the design: species or system human. Conditions: 1.5 s MST on time, n = 3, labeled LDH-Htr 100 nM, 50 mM sodium phosphate pH 7.6, 100 mM NaCl, 0.01% Tween-20, LP-22 value 'estimated'. Here is the method: MST measurements were performed on a NanoTemper Monolith NT.115 instrument (NanoTemper Technologies) using red dye–N-Hydroxysuccinimide fluorescent labeling. LDH-Htr purified to homogeneity was labeled with the Monolith red dye–N-Hydroxysuccinimide second-generation labeling dye (NanoTemper Technologies), according to the supplied protocol. Measurements were performed in 50 mM sodium phosphate, pH 7.6, and 100 mM NaCl containing 0.01% Tween-20 in standard-treated capillaries (NanoTemper Technologies). The final concentration of proteins in the assay was 100 nM. Ligands were titrated in 1:1 dilutions following manufacturer's recommendations. Experiments were performed in triplicates using 40% light-emitting diode power, high MST power, laser on time 20 s and laser off time 3 s. Peptides were evaluated for their thermophoretic pattern, and Kds were extracted from raw data at a 1.5 s MST on time following the manufacturer's instructions.

The target in a further data set is tetrameric LDH-5 (Homo sapiens, UniProt P00338). Kind of data set: nanoDSF thermal shift of LDH-5 with peptide. The format is binding. Background: DSF heats the sample and reads unfolding from a dye or from intrinsic fluorescence.
For data set [3], the system named is LDH-H variants. Kind of data set: Intrinsic tryptophan fluorescence spectra of variants. It counts as physicochemical, human. Conditions: variant 1.3 μM; λexc 286 nm; n = 6; pH 7.6. Here is the method:
All spectrophotometric experiments were performed with opaque 96-well plates using a Spectramax m2e spectrophotometer (Molecular Devices) following previously described procedures ([16]).
Full tryptophan fluorescence spectra were recorded using an excitation wavelength of 286 nm and recording the emission spectra from 320 to 400 nm at room temperature. The raw fluorescence of each experiment was subtracted to a corresponding control experiment without the protein. […] For dissociation in subunits, increasing amounts of guanidinium hydrochloride ranging from 0.3 to 2 M were put in contact with the studied proteins (1.3 μM), and fluorescence spectra were recorded afterward.

Data set [4] concerns dimeric LDH-Htr. The conditions noted are these: LDH-Htr 15 μM; peptide 500 μM; n = 3; 50 mM sodium phosphate, 100 mM NaCl, pH 7.6; stabilization. The procedure: Solutions of proteins (LDH-1, LDH-5, or LDH-Htr) with peptides were evaluated on a Tycho NT.6 device. Evaluations were performed in a 50 mM sodium phosphate and 100 mM NaCl (pH 7.6) buffer. According to standard manufacturer's procedures, samples were poured into capillaries and heated up to 95 °C in 3 min, while following fluorescence emission at 330 and 350 nm. Melting temperatures were extracted from the derivative of the 350/330 nm fluorescence ratios upon increasing temperature.

A further data set deals with tetrameric LDH-1. Put plainly: WaterLOGSY NMR with LDH-1. The format is binding, human. The conditions noted are these: LDH-1 15 μM; LP-22 400 μM; 50 mM sodium phosphate pH 7.6, 100 mM NaCl, 10% heavy water; 277 K. Here is the method:
(§1) Human LDH-H (full length and truncated)-6-His proteins for 1D NMR were expressed and purified from E. coli, as described previously. All experiments were performed on an Ascend Avance III 600 MHz system equipped with a broadband cryoprobe (Bruker) following a previously described procedure ([16]).
(§2) For WaterLOGSY NMR studies, samples were prepared in 10% heavy water containing 50 mM sodium phosphate buffer, pH 7.6, and 100 mM NaCl. The concentration of LDHs was ranging from 15 to 20 μM of monomer. Ligand binding was detected using a WaterLOGSY ephogsygpno.2 avance-version sequence with a 1 s mixing time, 4096 scans were collected at 277 K to yield a 16 K points free induction decay. Water signal suppression was achieved using an excitation-sculpting scheme, and a 50 ms spinlock was used to suppress protein background signals.

Data set [5] has as its system dimeric LDH-Htr. Kind of data set: WaterLOGSY NMR with LDH-Htr. The format is binding, human. Conditions: LDH-Htr 15 μM; LP-22 400 μM; 50 mM sodium phosphate pH 7.6, 100 mM NaCl, 10% heavy water; 277 K. The procedure: as §1, §2

Consider L71A: LDH-H recombinant alanine variant, for which, in the data set with LDH-H variants [1], the nanoDSF denaturation pattern entry was “a lower initial ratio and a red shift”; the “Ratio 350/330 nm” value was determined as 0.90. The midpoint of thermal melting (Tm) in the data set on LDH-H variants [1] (nanoDSF) amounted to 67.1 ± 0.1 °C. The “Tm difference versus LDH-Htr” value in the data set with LDH-H variants [1] (nanoDSF, higher than LDH-Htr) was determined as 10 °C. Moreover, in the data set on LDH-H oligomeric state, the “Oligomeric state in solution” value was “behaving as a mixture of tetramers and dimers”; the “Molecular weight (main oligomeric state)” value was determined as 148 ± 12 kDa; the “Relative intensity of dimer peak” value turned out to be 36%; the “Relative intensity of tetramer peak” value stood at 56%. Also, in the data set with LDH-H oligomeric state, the “Molecular weight of dimer peak” value amounted to 72 kDa and the “Molecular weight of tetramer peak” value amounted to 148 kDa.

As to Ac-GEMMDLQHGSLFLQTP-NH2 [GP-16], the Kd on dimeric LDH-Htr [2] is 240 µM. Further, the EC50 at tetrameric LDH-5 (read-out: EC50 (destabilization of tetrameric LDH, ΔTm vs peptide concentration)) was 262 µM.

On to E62A: LDH-H recombinant alanine variant, for which, in the data set on LDH-H variants [1], the nanoDSF denaturation pattern entry was “denaturation patterns comparable to dimeric LDH-Htr” and the “Ratio 350/330 nm” value came out at 0.95. In addition, the Tm with LDH-H variants [1] (nanoDSF) worked out at 58.9 ± 0.1 °C. In addition, in the data set with LDH-H oligomeric state, the “Oligomeric state in solution” value is “behaving mainly as dimers in solution”, the “Molecular weight (main oligomeric state)” value is 77 ± 18 kDa, the “Relative intensity of dimer peak” value was determined as 77% and the “Molecular weight of dimer peak” value came to 77 kDa. Besides, in the data set on LDH-H oligomeric state, the “Molecular weight of tetramer peak” value came out at 145 kDa. Further, the “Tryptophan fluorescence intensity compared with LDH-1” value in the data set on LDH-H variants [3] is recorded as “decays in fluorescence intensity characteristic of the dimeric forms of LDHs”.

Consider F72A: LDH-H recombinant alanine variant, for which, in the data set with LDH-H variants [1], the nanoDSF denaturation pattern result is recorded as “denaturation patterns comparable to dimeric LDH-Htr” and the “Ratio 350/330 nm” value is 0.94. Besides, the Tm in the data set with LDH-H variants [1] (nanoDSF) turned out to be 53.9 ± 0.1 °C. Moreover, in the data set with LDH-H oligomeric state, the “Oligomeric state in solution” value is “behaving mainly as dimers in solution”, the “Molecular weight (main oligomeric state)” value stood at 70 ± 17 kDa, the “Relative intensity of dimer peak” value stood at 79% and the “Relative intensity of tetramer peak” value stood at 19%. For the same compound, in the data set with LDH-H oligomeric state, the “Molecular weight of dimer peak” value came out at 70 kDa and the “Molecular weight of tetramer peak” value was 141 kDa. In addition, the “Tryptophan fluorescence intensity compared with LDH-1” value with LDH-H variants [3] is “decays in fluorescence intensity characteristic of the dimeric forms of LDHs”.

For `CSCC[C@H](NC(=O)[C@H](CCC(=O)O)NC(=O)CNC(=O)[C@H](CCCCN)NC(=O)[C@H](CC(C)C)NC(=O)[C@H](CCCCN)NC(=O)[C@H](CC(=O)O)NC(=O)[C@H](CCC(=O)O)NC(=O)[C@@H](N)CC(C)C)C(=O)N[C@@H](CCSC)C(=O)N[C@@H](CC(=O)O)C(=O)N[C@@H](CC(C)C)C(=O)N[C@@H](CCC(N)=O)C(=O)N[C@@H](Cc1c[nH]cn1)C(=O)NCC(=O)N[C@@H](CO)C(=O)N[C@@H](CC(C)C)C(=O)N[C@@H](Cc1ccccc1)C(=O)N[C@@H](CC(C)C)C(=O)N[C@@H](CCC(N)=O)C(=O)N[C@H](C(=O)N1CCC[C@H]1C(N)=O)[C@@H](C)O` [LP-22], at dimeric LDH-Htr [2], the Kd is 156 µM. In addition, the “ΔTm of dimeric LDH-Htr” value in the data set with dimeric LDH-Htr [4] amounted to 2.8 °C. For the same compound, the “Dependence of LDH destabilization on protein concentration” value on tetrameric LDH-5 (nanoDSF, Fig. S2) is reported as “an increasing amount of subunit reverted the effect”. For the same compound, the “WaterLOGSY saturation transfer with tetrameric LDH-1” value with tetrameric LDH-1 is listed as “not with the tetrameric LDH-1”. For the same compound, in the data set on dimeric LDH-Htr [5], the “WaterLOGSY saturation transfer with dimeric LDH-Htr” value was “undergoes a saturation transfer with dimeric LDH-Htr”.

Source of the values: article PMC8010463, “Discovery of a novel lactate dehydrogenase tetramerization domain using epitope mapping and peptides” (The Journal of Biological Chemistry, 2021).
